Test results: the supplement of paper PMC9112550, “Optimization of the antimicrobial peptide Bac7 by deep mutational scanning” (BMC Biology, 2022)

Test system: Escherichia coli TOP10
Test: shrunken log2 fold change of peptide-encoding DNA abundance (4.5 h post-induction vs induction); higher = less antimicrobial activity (less host growth inhibition)
Conditions: time post-induction: 4.5 h; library: site-saturation at positions 5, 18, 19, 20
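Also: peptides expressed intracellularly from a pBAD plasmid library in pooled LB shake-flask culture, induced with 0.3% L-arabinose, DNA abundance read by NGS, three biological replicates, DESeq2 with apeglm shrinkage.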

| Sequence | shrunken log2 fold change |
| --- | --- |
| RRIRARPPRLPRPRPRPSDAPRP | 0.396 |
| RRIRPRPPRLPRPRPRPIYYPRP | -0.323 |
| RRIRCRPPRLPRPRPRPDEGPRP | -0.00232 |
| RRIRLRPPRLPRPRPRPLITPRP | -0.238 |
| RRIRIRPPRLPRPRPRPLAVPRP | 0.097 |
| RRIRTRPPRLPRPRPRPKCKPRP | 0.0156 |
| RRIRGRPPRLPRPRPRPALAPRP | 1.17 |
| RRIRWRPPRLPRPRPRPSGDPRP | 0.537 |
| RRIRARPPRLPRPRPRPVPIPRP | 0.0735 |
| RRIRARPPRLPRPRPRPICYPRP | -0.0212 |
| RRIRRRPPRLPRPRPRPGKDPRP | -0.0528 |
| RRIRMRPPRLPRPRPRPSKHPRP | 0.159 |
| RRIRGRPPRLPRPRPRPHNMPRP | -0.285 |
| RRIRTRPPRLPRPRPRPFKCPRP | -0.18 |
| RRIRERPPRLPRPRPRPFWQPRP | -0.0859 |
| RRIRWRPPRLPRPRPRPVRLPRP | 0.428 |
| RRIRMRPPRLPRPRPRPWCRPRP | 0.0521 |
| RRIRMRPPRLPRPRPRPKAAPRP | 3.33 |
| RRIRERPPRLPRPRPRPNQYPRP | -0.674 |
| RRIRTRPPRLPRPRPRPNRYPRP | -0.19 |
| RRIRCRPPRLPRPRPRPNPKPRP | 0.055 |
| RRIRARPPRLPRPRPRPWQWPRP | -0.00151 |
| RRIRFRPPRLPRPRPRPSRMPRP | 0.311 |
| RRIRNRPPRLPRPRPRPRSSPRP | -0.145 |
| RRIRARPPRLPRPRPRPDNRPRP | 0.0425 |

| Sequence | shrunken log2 fold change |
| --- | --- |
| RRIRARPPRLPRPRPRPPGMPRP | 0.471 |
| RRIRWRPPRLPRPRPRPMLIPRP | 0.157 |
| RRIRSRPPRLPRPRPRPFKKPRP | 0.0549 |
| RRIRERPPRLPRPRPRPVFYPRP | -0.437 |
| RRIRVRPPRLPRPRPRPYAGPRP | 0.0438 |
| RRIRLRPPRLPRPRPRPITFPRP | 0.0415 |
| RRIRIRPPRLPRPRPRPTAHPRP | -0.313 |
| RRIRYRPPRLPRPRPRPIKFPRP | -0.244 |
| RRIRIRPPRLPRPRPRPDIPPRP | -0.112 |
| RRIRDRPPRLPRPRPRPNQCPRP | -0.436 |
| RRIRARPPRLPRPRPRPKALPRP | 0.294 |
| RRIRRRPPRLPRPRPRPRINPRP | 0.125 |
| RRIRMRPPRLPRPRPRPNFCPRP | 0.0533 |
| RRIRRRPPRLPRPRPRPFYLPRP | -0.226 |
| RRIRIRPPRLPRPRPRPRDAPRP | 0.215 |
| RRIRTRPPRLPRPRPRPHTVPRP | -0.244 |
| RRIRPRPPRLPRPRPRPTILPRP | -0.104 |
| RRIRCRPPRLPRPRPRPWLGPRP | 0.188 |
| RRIRVRPPRLPRPRPRPQTWPRP | -0.148 |
| RRIRPRPPRLPRPRPRPSTYPRP | -0.415 |
| RRIRLRPPRLPRPRPRPRWGPRP | 0.175 |
| RRIRDRPPRLPRPRPRPYTAPRP | 0.0362 |
| RRIRPRPPRLPRPRPRPPIVPRP | 0.161 |
| RRIRLRPPRLPRPRPRPHKKPRP | -0.163 |
| RRIRMRPPRLPRPRPRPFWAPRP | 0.509 |

| Sequence | shrunken log2 fold change |
| --- | --- |
| RRIRIRPPRLPRPRPRPGYMPRP | -0.442 |
| RRIRWRPPRLPRPRPRPYWAPRP | -0.298 |
| RRIRARPPRLPRPRPRPWGGPRP | 0.605 |
| RRIRHRPPRLPRPRPRPGVSPRP | 0.0185 |
| RRIRERPPRLPRPRPRPRRCPRP | 0.0702 |
| RRIRMRPPRLPRPRPRPSQVPRP | -0.0436 |
| RRIRERPPRLPRPRPRPVCAPRP | 0.415 |
| RRIRCRPPRLPRPRPRPMFRPRP | -0.179 |
| RRIRKRPPRLPRPRPRPWPDPRP | 0.238 |
| RRIRWRPPRLPRPRPRPRAWPRP | 0.124 |
| RRIRIRPPRLPRPRPRPWKIPRP | -0.0311 |
| RRIRARPPRLPRPRPRPGSTPRP | 0.247 |
| RRIRQRPPRLPRPRPRPFDGPRP | -0.901 |
| RRIRHRPPRLPRPRPRPYGAPRP | -0.48 |
| RRIRARPPRLPRPRPRPGEHPRP | 0.351 |
| RRIRYRPPRLPRPRPRPITMPRP | -1.13 |
| RRIRTRPPRLPRPRPRPVKQPRP | -0.00945 |
| RRIRSRPPRLPRPRPRPQPDPRP | -0.185 |
| RRIRERPPRLPRPRPRPKHSPRP | 0.111 |
| RRIRGRPPRLPRPRPRPMSWPRP | 0.252 |
| RRIRNRPPRLPRPRPRPSIGPRP | -0.109 |
| RRIRQRPPRLPRPRPRPMNCPRP | -0.0255 |
| RRIRGRPPRLPRPRPRPFCKPRP | 0.0671 |
| RRIRDRPPRLPRPRPRPHGNPRP | -0.149 |
| RRIRGRPPRLPRPRPRPQKAPRP | -0.027 |
